In patent US20150344570A1 (published 2015):

T1: FcγRIIa H (FcgRIIa type H, His at position 131), extracellular domain with C-terminal His tag (human, UniProt P12318 34-217)
T1 construct: extracellular domain; also called 2aH; FcgRIIa H; not shown: His tag at the C terminus
T1 sequence (looked up): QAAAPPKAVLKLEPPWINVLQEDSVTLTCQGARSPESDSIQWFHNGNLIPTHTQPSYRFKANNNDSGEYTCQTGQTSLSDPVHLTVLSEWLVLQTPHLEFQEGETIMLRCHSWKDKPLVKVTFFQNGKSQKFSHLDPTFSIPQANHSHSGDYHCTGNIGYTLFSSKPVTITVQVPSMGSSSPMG

T2: FcγRIIb, extracellular domain with C-terminal His tag (human, UniProt P31994 43-217)
T2 construct: extracellular domain; also called 2b; FcgRIIb; not shown: His tag at the C terminus
T2 sequence (looked up): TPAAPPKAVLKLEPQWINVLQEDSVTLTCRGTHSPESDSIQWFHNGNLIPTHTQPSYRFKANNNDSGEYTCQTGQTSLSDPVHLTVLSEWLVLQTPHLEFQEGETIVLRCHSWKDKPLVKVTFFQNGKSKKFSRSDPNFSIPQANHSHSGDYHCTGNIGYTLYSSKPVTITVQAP

B1: GpH7-A5/GpH7-B3 variant S267_01G/GpL16-k0 (antibody, human IgG1, kappa)
heavy 1: not shown
heavy 2: not shown
light: DIVMTQSPLSLPVTPGEPASISCQASESLVHSNRNTYLHWYLQKPGQSPQLLIYKVSNRFSGVPDRFSGSGSGTDFTLKISRVEAEDVGVYYCSQNTHVPPTFGQGTKVEIERTVAAPSVFIFPPSDEQLKSGTASVVCLLNNFYPREAKVQWKVDNALQSGNSQESVTEQDSKDSTYSLSSTLTLSKADYEKHKVYACEVTHQGLSSPVTKSFNRGEC
notes: He Ab; alteration in one H chain only; also called He Ab
B2: GpH7-A5/GpH7-B3 variant H268_09D/GpL16-k0 (antibody, human IgG1, kappa)
heavy 1: not shown
heavy 2: not shown
light: B1 light
notes: as for B1
B3: GpH7-A5/GpH7-B3 variant S267_02A/GpL16-k0 (antibody, human IgG1, kappa)
heavy 1: not shown
heavy 2: not shown
light: B1 light
notes: as for B1
B4: GpH7-A5/GpH7-B3 variant S267_04F/GpL16-k0 (antibody, human IgG1, kappa)
heavy 1: not shown
heavy 2: not shown
light: B1 light
notes: as for B1
B5: GpH7-A5/GpH7-B3 variant P271_09D/GpL16-k0 (antibody, human IgG1, kappa)
heavy 1: not shown
heavy 2: not shown
light: B1 light
notes: as for B1
B6: GpH7-A5/GpH7-B3 variant V266_16H/GpL16-k0 (antibody, human IgG1, kappa)
heavy 1: not shown
heavy 2: not shown
light: B1 light
notes: as for B1
B7: GpH7-A5/GpH7-B3 variant S267_05P/GpL16-k0 (antibody, human IgG1, kappa)
heavy 1: not shown
heavy 2: not shown
light: B1 light
notes: as for B1
B8: GpH7-A5/GpH7-B3 variant P271_14T/GpL16-k0 (antibody, human IgG1, kappa)
heavy 1: not shown
heavy 2: not shown
light: B1 light
notes: as for B1
B9: GpH7-A5/GpH7-B3 variant P271_10E/GpL16-k0 (antibody, human IgG1, kappa)
heavy 1: not shown
heavy 2: not shown
light: B1 light
notes: as for B1
B10: GpH7-A5/GpH7-B3 variant S267_07I/GpL16-k0 (antibody, human IgG1, kappa)
heavy 1: not shown
heavy 2: not shown
light: B1 light
notes: as for B1
B11: GpH7-A5/GpH7-B3 variant S267_20W/GpL16-k0 (antibody, human IgG1, kappa)
heavy 1: not shown
heavy 2: not shown
light: B1 light
notes: as for B1
B12: GpH7-A5/GpH7-B3 variant H268_19Q/GpL16-k0 (antibody, human IgG1, kappa)
heavy 1: not shown
heavy 2: not shown
light: B1 light
notes: as for B1
B13: GpH7-A5/GpH7-B3 variant K326_02A/GpL16-k0 (antibody, human IgG1, kappa)
heavy 1: not shown
heavy 2: not shown
light: B1 light
notes: as for B1
B14: GpH7-A5/GpH7-B3 variant S267_06M/GpL16-k0 (antibody, human IgG1, kappa)
heavy 1: not shown
heavy 2: not shown
light: B1 light
notes: as for B1
B15: GpH7-A5/GpH7-B3 variant H268_10E/GpL16-k0 (antibody, human IgG1, kappa)
heavy 1: not shown
heavy 2: not shown
light: B1 light
notes: as for B1
B16: GpH7-A5/GpH7-B3 variant S267_14T/GpL16-k0 (antibody, human IgG1, kappa)
heavy 1: not shown
heavy 2: not shown
light: B1 light
notes: as for B1
B17: GpH7-A5/GpH7-B3 variant S267_16H/GpL16-k0 (antibody, human IgG1, kappa)
heavy 1: not shown
heavy 2: not shown
light: B1 light
notes: as for B1
B18: GpH7-A5/GpH7-B3 variant S298_08L/GpL16-k0 (antibody, human IgG1, kappa)
heavy 1: not shown
heavy 2: not shown
light: B1 light
notes: as for B1
B19: GpH7-A5/GpH7-B3 variant K326_03V/GpL16-k0 (antibody, human IgG1, kappa)
heavy 1: not shown
heavy 2: not shown
light: B1 light
notes: as for B1
B20: GpH7-A5/GpH7-B3 variant V266_19Q/GpL16-k0 (antibody, human IgG1, kappa)
heavy 1: not shown
heavy 2: not shown
light: B1 light
notes: as for B1
B21: GpH7-A5/GpH7-B3 variant H268_05P/GpL16-k0 (antibody, human IgG1, kappa)
heavy 1: not shown
heavy 2: not shown
light: B1 light
notes: as for B1
B22: GpH7-A5/GpH7-B3 variant S267_15Y/GpL16-k0 (antibody, human IgG1, kappa)
heavy 1: not shown
heavy 2: not shown
light: B1 light
notes: as for B1
B23: GpH7-A5/GpH7-B3 variant S267_03V/GpL16-k0 (antibody, human IgG1, kappa)
heavy 1: not shown
heavy 2: not shown
light: B1 light
notes: as for B1
B24: GpH7-A5/GpH7-B3 variant S267_09D/GpL16-k0 (antibody, human IgG1, kappa)
heavy 1: not shown
heavy 2: not shown
light: B1 light
notes: as for B1
B25: GpH7-A5/GpH7-B3 variant S267_10E/GpL16-k0 (antibody, human IgG1, kappa)
heavy 1: not shown
heavy 2: not shown
light: B1 light
notes: as for B1
B26: GpH7-A5/GpH7-B3 variant S267_19Q/GpL16-k0 (antibody, human IgG1, kappa)
heavy 1: not shown
heavy 2: not shown
light: B1 light
notes: as for B1
B27: GpH7-A5/GpH7-B3 variant H268_02A/GpL16-k0 (antibody, human IgG1, kappa)
heavy 1: not shown
heavy 2: not shown
light: B1 light
notes: as for B1
B28: GpH7-A5/GpH7-B3 variant H268_13S/GpL16-k0 (antibody, human IgG1, kappa)
heavy 1: not shown
heavy 2: not shown
light: B1 light
notes: as for B1
B29: GpH7-A5/GpH7-B3 variant H268_01G/GpL16-k0 (antibody, human IgG1, kappa)
heavy 1: not shown
heavy 2: not shown
light: B1 light
notes: as for B1
B30: GpH7-A5/GpH7-B3 variant H268_18N/GpL16-k0 (antibody, human IgG1, kappa)
heavy 1: not shown
heavy 2: not shown
light: B1 light
notes: as for B1
B31: GpH7-A5/GpH7-B3 variant S267_08L/GpL16-k0 (antibody, human IgG1, kappa)
heavy 1: not shown
heavy 2: not shown
light: B1 light
notes: as for B1
B32: GpH7-A5/GpH7-B3 variant P271_01G/GpL16-k0 (antibody, human IgG1, kappa)
heavy 1: not shown
heavy 2: not shown
light: B1 light
notes: as for B1

biological target: T1, FcγRIIa H (FcgRIIa type H, His at …); assay: SPR (Biacore), relative binding, GpH7-A5/GpH7-B3/GpL16-k0 = 100

He/Con_2aH | Binder
71.3 % of control | B1
133 % of control | B2
120 % of control | B3
22.7 % of control | B4
70.1 % of control | B5
21.2 % of control | B6
25.1 % of control | B7
60.9 % of control | B8
63.1 % of control | B9
34.7 % of control | B10
37.9 % of control | B11
102 % of control | B12
106 % of control | B13
34.3 % of control | B14
124 % of control | B15
63.3 % of control | B16

He/Con_2aH | Binder
29.8 % of control | B17
85 % of control | B18
97 % of control | B19
46.4 % of control | B20
81.8 % of control | B21
19.6 % of control | B22
50.8 % of control | B23
105 % of control | B24
102 % of control | B25
61.3 % of control | B26
114 % of control | B27
112 % of control | B28
99.2 % of control | B29
112 % of control | B30
29 % of control | B31
107 % of control | B32

biological target: T2, FcγRIIb, extracellular domain with …; assay: as above

He/Con_2b | Binder
105 % of control | B1
239 % of control | B2
243 % of control | B3
48 % of control | B4
120 % of control | B5
57.2 % of control | B6
31.5 % of control | B7
95.4 % of control | B8
109 % of control | B9
192 % of control | B10
57.2 % of control | B11
133 % of control | B12
139 % of control | B13
210 % of control | B14
230 % of control | B15
104 % of control | B16

He/Con_2b | Binder
65.9 % of control | B17
108 % of control | B18
175 % of control | B19
89.2 % of control | B20
116 % of control | B21
37.9 % of control | B22
192 % of control | B23
310 % of control | B24
379 % of control | B25
218 % of control | B26
167 % of control | B27
160 % of control | B28
144 % of control | B29
156 % of control | B30
109 % of control | B31
193 % of control | B32

biological target: T1, FcγRIIa H (FcgRIIa type H, His at …); assay: SPR; He/Con_2aH divided by He/Con_2b (FcγRIIa H binding over FcγRIIb binding)

He_2aH/2b (IIaH/IIb) [ratio] | Binder
0.68 | B1
0.55 | B2
0.49 | B3
0.47 | B4
0.58 | B5
0.37 | B6
0.8 | B7
0.64 | B8
0.58 | B9
0.18 | B10
0.66 | B11
0.77 | B12
0.76 | B13
0.16 | B14
0.54 | B15
0.61 | B16

He_2aH/2b (IIaH/IIb) [ratio] | Binder
0.45 | B17
0.78 | B18
0.55 | B19
0.52 | B20
0.7 | B21
0.52 | B22
0.26 | B23
0.34 | B24
0.27 | B25
0.28 | B26
0.68 | B27
0.7 | B28
0.69 | B29
0.72 | B30
0.27 | B31
0.55 | B32
